From paper PMC12689640

Experiments:
[1] = target: μOR N86^1.50A-RLuc8 (mouse) (UniProt P42866)
[2] = target: μOR Q124^2.60L-RLuc8 (mouse) (UniProt P42866)
[3] = target: μOR Y326^7.43F-RLuc8 (mouse) (UniProt P42866)
[4] = target: μOR W293^6.48A-RLuc8 (mouse) (UniProt P42866)
[5] = target: μOR S329^7.46A-RLuc8 (mouse) (UniProt P42866)

With “Gi heterotrimer of the dissociation assay (Gαi1-RLuc8, Gβ1, Venus-Gγ2) (from UniProt P63096 1-354; P62873 1-340; P59768 1-71) (complex)” the efficacy of Gi activation against wild type (Gi dissociation BRET) [1] was 40 to 60%, the efficacy of Gi dissociation against wild type (BRET), stimulated with DAMGO [2] was 60% and the decrease of Gi dissociation efficacy against wild type (BRET) [3] was 30%. The efficacy of Gi activation against wild type (Gi dissociation BRET) [4] was 35 to 60% and the decrease of Gi dissociation efficacy against wild type (BRET) [5] was 40%.
